# Source: the domain aggregation screens of Martell et al. (2025)
# Assay: soluble fraction after stress (log2 fold change); higher = more stays soluble; pooled small domains, quantitative proteomics
# Details: stress: 50 degC
# How it was run: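 Pooled custom libraries of small protein domains were each held under stress at 50°C. The read-out, high-throughput quantitative proteomics, tracked how much of each protein stayed soluble. This is reported as a base-two log fold change used to indicate aggregation propensity. Higher values mean more protein remains in solution.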
row,Sequence,soluble fraction (log2)
1,HMSDQIQQIAERIAGLRDIAGYSVEELARELGISAEEYKRYESGEVDIPIGFLYKLANKYNVELTAILT,-0.0876
2,HMANPEFAGYINGKPYFGPTHQHRGVKMLGATHTRNPHPLVWDSIAESLANYDSRFRWSGGQIL,-0.429
3,HMEPESTMIEISETLTNERLDRYLATKLPNVSRGGIQRLLREGNILVNGKKAKPTQHPVAGQKIEITWPNP,0.0857
4,HMGIFAQTTKWRDIYTVKKKDTIFGIANKYGLSLPELMEANPEMKQEGYMLQKGTTLFIPFASD,-0.483
5,HMDSEKVLTNLKEELVLQLSNIEPYGYVPSQYWYSKVQRVQSVQELGKYVDGDLEAFVMKYAEDWESQK,-0.191
6,HMTSHPTHTILDGKVHVFMRDGSPFWWGGFHFKGKYLRTSTKQKNLDSAKTIAQQWYFQKQTEIASGE,-2.67
7,HMDYKSTLQELVQTVKKSVTYEVIDEEGPSHNKTFTSIVKIDGIVMGKGTAGSKKASEQEAARDALSKR,0.271
8,HMDPVILDINSVKALLGISNKADFMAELSRLVVTEGDKKMIIPLAKEVGIDNVAVYKRNEIENISNYK,-0.1
9,HMEETLLLRESVRSALAMLAPTLRITLEMYVYRQLSPTEIALRSGVSISMVRRRLGYGLYKLRTQLIDA,-0.138
10,HMPDGTATATASVNVRSGASTLSPVLGVLRVGESIGVTGQANGGWVPVNYNGRAGYVYAAYLSFD,-0.161
11,HMNMGKRFKELRKERKFTQQQLADRIGLAPSAISSYESGARYPSYDVLIKYSKIFHVTTDYLLG,-2.81
12,HMGTAVKAPMPGTILKVNVTAGQSVKAGDIMFILEAMKMENEIVAPSDGTVSQVVAAKGSSVATDDVLAYL,-0.0338
13,HMGRGSEDEQMRGLAVILAEQKQIMQTLGVENEVVKPEQYINTLKRMAELNGFKDTDQFFSIPQ,0.339
14,HMGLAGVQSDVKVSFDGDLLVVTSDIARSFNLFAVDGRLIRSVNLIAGRNEIRGLERGFYLAEKQKIFV,-2.07
15,HMRPEARAASLSDEERKIFDYLAANGEKTIDNISVAVKMSAADILKNITLMSAKGLVYMPSAGRYGVKGN,-0.00201
16,HMGKTTQEIEERSSTSTLTLTQTPKEIISVQGKKSDQSFFTNIQYTQNGKVIVPKQTGIYDTIKVVFTVSL,-1.2
17,HMSQLLHELLAHVLKDRIISGEWPAGSRIMSEHALQERYGVSRGTVRRALAQLVQEGLLVQRKGKGTFVTR,-1.65
18,HMSSIFTRIIAGEIPSYKVAEDENYYAFLDINPLTKGHTLVVPKMEVDYIFDLDDKTLAGMMLFAKKG,-0.0969
19,HMFTYEETIGKSADVYLTIPALKAGKGKIIISVRGSVHELDAMTNNAEKISTGAVVKIVRIEHGNILLVEN,-1.63

row,Sequence,soluble fraction (log2)
1,HMSTQGRRIEILRHLTQTKKKADVNFVELGRTFGTSDTTIRKDLDWLIKNEYWENHGEWKPTQAGLNMI,0.0347
2,HMTFPYTSLKDAPKNMKEIDGVPLTLDQVNQIAKVADSIGVSKEKNGYAIAKSQFKKSHHIENNRWVKNK,0.0239
3,HMGKEWPTPDNVEEWKKLVKKARLWPIQADQAQSEETRERNRKKWELFVAYAKRFGYRAGIGETGKPFVNN,-0.443
4,HMITDNEFLRIVSFLKQRYGIDMSQKKVIMNGRLENYLKSGGWSSFDEYMNDVEKDTSGDLEKTLVNFLTT,-0.537
5,HMKGRPTTAIITDERTNLRSGPGATNKTIAQAGAGEKLAIIDEKDGWYQVSRAGINGWVAGWVIDVAW,-0.441
6,HMPQNVSVPDVTNMTQAEAESKLKEKNLAVGNIIPELSTTVEKDKVTRTNPESGSNVRKNSKVDIYVSQG,0.0455
7,HMTKEEFLDEIKKELGFMPYEEVIKAEKYFESYFNGSEADEKVIERFGSPKYAAQNYYRTHVAN,-0.0965
8,HMNYKNAIGQVGSVYVPIPPNREGLGQIEVKVQSRVSTVRAVSDHSERLENRVAVRVIELVDDRTLLVEKL,-0.839
9,HMFAGEWKQDASGWWYQNDDGSFTRNGWQNISGKQYYFNENGYMLHDTTTPDGKQVGSDGSLV,0.0661
10,HMVTVQEGETLSAIAARSGVSVKDLVRANEIRNPDSIQEGQVLFVP,0.0612
11,HMNLTLMDALKAAGLPVDGINLSMVNKMMEEQMPIDKTSLNQMYQLVQDNKDINVTTLVELKRLG,-0.0277
12,HMGTLPSLAPSGEKTVRLPNLAGWSLRETMEILQKGGLQLLPIGSGISFKQSPPPGTTLNEGDAVTVWF,0.0292
13,HMESAEQTGEELAARVNVLQTVSQALARELGREAAVEELADKMKMTVDEVKDIMKMAMDAMSM,0.168
14,HMTSEVPVGSNVRIRASTLAGERDFEGTMLPPAGEGLTTLKLVNGYNLSYPSKDVLDIEFLGGAGE,0.057
15,HMLSSREEKILNYLNEHQIITRKKAQELLETSQSTAGRVLKIMVDNGLIVQYGGSRSIWYELIK,-0.939
16,HMNIIMLGEFIKEQRIKRKMTQEYLASELGISRPTYSQIELGTRELTIPEARKMAAIFNISLEDFLAEKE,-0.604
17,HMVAGHLQEKNGQFYAVLSYKDTKGKRRTKWVPTGLMVRGNKKRAEAMLNDIRRKFVPPEQED,0.0995
18,HMLINIKTNSAVNVRSGPGMGFEVVNTYPSGYILQAKEMQKDGGDNVWYKVKDGWLSANYTIDI,-0.198
19,HMPEKNQITHLIRLIDDRDEFVRKRVREQLIKLGEDAIPFLEMAAKTENLEIQRIASEIIQAIIPRQ,-0.13
